Measurements published in US20240043528A1, “NANOBODY-OGA FUSIONS AND USES THEREOF” (President and Fellows of Harvard College, priority 2020, published 2024).

Tests used:
GFP-Nup62 = test: Deglycosylation of GFP-Nup62 co-expressed with OGA constructs (anti-EPEA enrichment, RL2 immunoblot); format: cell-based, human; settings: co-expressed in HEK 293T cells
Method: (§1) HEK 293T cells were cultured in Dulbecco's Modified Eagle Medium (DMEM, Cat #11995073) supplemented with penicillin (50 μg/mL) and streptomycin (50 μg/mL) along with 10% (v/v) FBS. Transfections of all plasmids in this study were performed using TransIT-PRO® (Mirus Bio, Cat #MIR 5740) according to the manufacturer's instructions.
Glycoproteins Nup62, Sp1, JunB, c-Jun were subcloned into pcDNA3.1 vector with a GFP and a Flag-tag or a BC2 tag in the N-terminus and an EPEA tag in the C terminus respectively, unless otherwise noted. For all split OGA constructs with or without the fusion of nanobody GFP, N fragments were tagged with myc tag and C fragments were tagged with HA tag respectively. Human SP1 cDNA ORF plasmid (Cat #HG12024-G), human c-Fos cDNA ORF plasmid, and human OGT cDNA ORF cloned with a C-terminal His tag (Cat #HG11279-M) were purchased from Sino Biological. For subcloning, PCR fragments were amplified using Q5 High-Fidelity 2× Master Mix (New England BioLabs, Cat #M0492S). The vectors were double-digested and ligated to gel-purified PCR products by T4 ligation using T4 DNA ligase (New England BioLabs, Cat #M0202S) or by Gibson assembly using Gibson Assembly Master mix (New England BioLabs, Cat #E2611L). c-Fos was subcloned into a pcDNA3.1 vector with a 14-residue Ubc tag (amino acids: QADQEAKELARQIA (SEQ ID NO: 11)), Flag tag, and EPEA tag at the C terminus. All nanobody DNA fragments were synthesized by IDT.
After 36-48 h of transfection, cells were harvested and washed with PBS once. Cells were lysed with M-PER lysis buffer containing 1× protease inhibitor cocktail and 10 μM Thiamet-G unless otherwise noted. Protein concentrations were determined by the BCA assay kit (G-Biosciences, 786) on a multi-mode microplate reader FilterMax F3 (Molecular Devices LLC, Sunnyvale, CA).
For immunoprecipitation of proteins with the C-terminal EPEA tag, cell lysates with equal amounts of protein were diluted with PBS and incubated with C-tag affinity matrix (Thermo Scientific) for 1 h at room temperature, with end-to-end rotation, following the manufacturer's instructions. After washing three times with PBS buffer, the enriched proteins were eluted with SDS sample buffer and subjected to SDS-PAGE.
For immunoblotting analysis, proteins were transferred to a nitrocellulose membrane using iBlot (Thermo Scientific). Membranes were blocked with Tris buffered saline containing 0.1% Tween-20 and 5% BSA and incubated with the primary antibodies (1:1000 dilution) and the secondary antibodies (1:10,000 dilution) sequentially. Immunoblot images were captured by Azure Imager C600. Analysis of immunoblots was conducted with Fiji ImageJ. All IR fluorescence western blot images are converted into grayscale images by Fiji ImageJ. The unsaturated exposure of immunoblot images was used for quantification with the appropriate loading controls as standards. Statistical analysis of the data was performed with Prism 8, using data from at least three independent experiments.

GFP-Sp1 = test: Deglycosylation of GFP-Sp1 co-expressed with OGA constructs (anti-EPEA enrichment, immunoblot); format: cell-based, human; settings: co-expressed in HEK 293T cells
Method: as §1
Glycoproteins Nup62, Sp1, JunB, c-Jun were subcloned into pcDNA3.1 vector with a GFP and a Flag-tag or a BC2 tag in the N-terminus and an EPEA tag in the C terminus respectively, unless otherwise noted. For all split OGA constructs with or without the fusion of nanobody GFP, N fragments were tagged with myc tag and C fragments were tagged with HA tag respectively. […]
After 36-48 h of transfection, cells were harvested and washed with PBS once. […] Protein concentrations were determined by the BCA assay kit (G-Biosciences, 786) on a multi-mode microplate reader FilterMax F3 (Molecular Devices LLC, Sunnyvale, CA). […]
For immunoblotting analysis, proteins were transferred to a nitrocellulose membrane using iBlot (Thermo Scientific). […] All IR fluorescence western blot images are converted into grayscale images by Fiji ImageJ. The unsaturated exposure of immunoblot images was used for quantification with the appropriate loading controls as standards. […]

OGT = target: T1, OGT (Homo sapiens, UniProt O15294); test: Co-immunoprecipitation of OGA constructs with His-tagged OGT; format: cell-based; settings: OGT-His co-transfected in HEK 293T cells
T1 construct: host or cells: HEK 293T
T1 sequence (O15294 1-1046): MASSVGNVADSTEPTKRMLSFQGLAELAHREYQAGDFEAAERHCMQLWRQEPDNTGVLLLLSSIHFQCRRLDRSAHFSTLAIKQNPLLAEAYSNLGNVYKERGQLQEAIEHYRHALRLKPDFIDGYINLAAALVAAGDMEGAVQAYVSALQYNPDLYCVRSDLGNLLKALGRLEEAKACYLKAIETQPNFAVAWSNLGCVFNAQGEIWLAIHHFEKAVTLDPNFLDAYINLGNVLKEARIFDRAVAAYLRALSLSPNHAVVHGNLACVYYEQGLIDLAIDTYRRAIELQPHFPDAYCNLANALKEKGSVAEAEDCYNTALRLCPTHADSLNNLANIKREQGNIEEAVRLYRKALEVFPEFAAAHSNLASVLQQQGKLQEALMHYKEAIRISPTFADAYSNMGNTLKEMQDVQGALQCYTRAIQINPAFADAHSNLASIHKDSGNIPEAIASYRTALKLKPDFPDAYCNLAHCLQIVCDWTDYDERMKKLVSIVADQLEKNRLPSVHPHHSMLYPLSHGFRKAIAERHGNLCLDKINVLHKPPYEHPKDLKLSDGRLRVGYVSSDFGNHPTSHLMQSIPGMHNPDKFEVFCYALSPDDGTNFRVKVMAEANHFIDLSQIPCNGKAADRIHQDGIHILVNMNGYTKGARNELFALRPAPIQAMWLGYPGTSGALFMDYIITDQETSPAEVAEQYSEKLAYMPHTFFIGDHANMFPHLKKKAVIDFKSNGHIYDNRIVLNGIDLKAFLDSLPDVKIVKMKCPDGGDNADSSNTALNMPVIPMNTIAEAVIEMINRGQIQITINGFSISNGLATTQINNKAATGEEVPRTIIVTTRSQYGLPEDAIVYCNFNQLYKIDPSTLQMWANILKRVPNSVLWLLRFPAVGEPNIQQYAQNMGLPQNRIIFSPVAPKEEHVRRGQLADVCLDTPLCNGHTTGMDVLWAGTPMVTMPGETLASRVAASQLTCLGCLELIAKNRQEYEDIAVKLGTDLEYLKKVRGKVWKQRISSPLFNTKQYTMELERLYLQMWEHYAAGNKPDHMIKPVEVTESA
Method: For immunoprecipitation of proteins with His tag, cells were lysed in a buffer containing 50 mM Tris HCl pH 8.0, 150 mM NaCl, 1% Triton X-100, 5% glycerol, 1× protease inhibitor cocktail and 10 μM Thiamet-G on ice for 20 min. Cell lysates with equal amounts of protein were diluted with wash buffer (50 mM Tris HCl pH 8.0, 150 mM NaCl, 0.01% Tween-20) and incubated with pre-washed His-Tag Dynabeads (Invitrogen, 10103D) at room temperature for 20 min with mixing, following the manufacturer's instructions. After washed 4 times with wash buffer, the enriched proteins were eluted with elution buffer (300 mM Imidazole, 50 mM Tris HCl pH 8.0, 150 mM NaCl, 0.01% Tween-20) on a shaker for 10 min at room temperature.

B1: split OGA (N2+C3): split OGA fragments N2 and C3 without nanobody (protein)
chain 1: MEQKLISEEDLAIAMVQKESQATLEERESELSSNPAASAGASLEPPAAPAPGEDNPAGAGGAAVAGAAGGARRFLCGVVEGFYGRPWVMEQRKELFRRLQKWELNTYLYAPKDDYKHRMFWREMYSVEEAEQLMTLISAAREYEIEFIYAISPGLDITFSNPKEVSTLKRKLDQVSQFGCRSFALLFDDIDHNMCAADKEVFSSFAHAQVSITNEIYQYLGEPETFLFCPTEYCGTFCYPNVSQSPYLRTVGEKLLPGIEVLWTGPKVVSKEIPVESIEEVSKIIKRAPVIWDNIHANDYDQKRLFLGPYKGRSTELIPRLKGVLTNPNCEFEANYVAIHTLATWYKSNMNGVRKDVVMTDSEDSTVSIQIKLENEGSDEDIETDVLYSPQMALKLALTEWLQEFGVPHQYSSR
chain 2: MAYPYDVPDYAAIAEKPLYTAEPVTLEDLQLLADLFYLPYEHGPKGAQMLREFQWLRANSSVVSVNCKGKDSEKIEEWRSRAAKFEEMCGLVMGMFTRLSNCANRTILYDMYSYVWDIKSIMSMVKSFVQWLGCRSHSSAQFLIGDQEPWAFRGGLAGEFQRLLPIDGANDLFFQPP
In the case of B1, the “deglycosidase activity / O-GlcNAc modification level on GFP-Nup62” value (GFP-Nup62) is reported as “limited substrate activity”, the “deglycosidase activity / O-GlcNAc modification level on GFP-Nup62” value (GFP-Nup62; listed as N2-C3 pair) is reported as “significantly reduced activity” and the “deglycosidase activity / O-GlcNAc level on GFP-Sp1” value (GFP-Sp1) is reported as “weak inherent deglycosidase activity”. For the same molecule, the “interaction with OGT” value (OGT) was “unable to interact with OGT”.
